Data set [1] addresses Glu2 (position 2, ----TEAHHK-). Briefly: potentiometry. As to conditions: 25 C; 0.1 M KNO3; free peptide (no metal).
The target of data set [2] is His4 (position 4, --TEAHHK---). As to the kind of experiment: potentiometry. As to conditions: 25 C; 0.1 M KNO3; free peptide (no metal).
The target of data set [3] is His5 (position 5, -TEAHHK----). As to the kind of experiment: potentiometry. Particulars: 25 C; 0.1 M KNO3; free peptide (no metal).
Data set [4] concerns the target Lys6 (position 6, TEAHHK-----). As to the kind of experiment: potentiometry. As to conditions: 25 C, 0.1 M KNO3.
The target of data set [5] is His4 (position 4, --TEAHHK---). As to the kind of experiment: NMR. Particulars: 25 C; free peptide (no metal), 5 mM.
The target in data set [6] is His5 (position 5, -TEAHHK----). Briefly: NMR. Particulars: 25 C; free peptide (no metal), 5 mM.
Data set [7] has as its target His5 (position 5, -TESHHK----). Briefly: potentiometry. As to conditions: 25 C; 0.1 M KNO3; free peptide (no metal).
Data set [8] concerns the target Glu2 (position 2, ----TESHHK-). Briefly: potentiometry. Particulars: 25 C; 0.1 M KNO3; free peptide (no metal).
The target of data set [9] is Lys6 (position 6, TESHHK-----). Briefly: potentiometry. As to conditions: 25 C, 0.1 M KNO3.
For data set [10], the target named is His4 (position 4, --TESHHK---). As to the kind of experiment: potentiometry. As to conditions: 25 C; 0.1 M KNO3; free peptide (no metal).
Data set [11] concerns the target His5 (position 5, -TESHHK----). Briefly: NMR. As to conditions: 25 C; free peptide (no metal), 5 mM.
Data set [12] concerns the target His4 (position 4, --TESHHK---). Briefly: NMR. Particulars: 25 C; free peptide (no metal), 5 mM.
The target in data set [13] is His5 (position 5, -TASHHK----). As to the kind of experiment: potentiometry. As to conditions: 25 C; 0.1 M KNO3; free peptide (no metal).
Data set [14] concerns the target His4 (position 4, --TASHHK---). Briefly: potentiometry. As to conditions: 25 C; 0.1 M KNO3; free peptide (no metal).
The target of data set [15] is Lys6 (position 6, TASHHK-----). As to the kind of experiment: potentiometry. As to conditions: 25 C; 0.1 M KNO3; free peptide (no metal).
Data set [16] concerns the target His5 (position 5, -TASHHK----). Briefly: NMR. Particulars: 25 C; free peptide (no metal), 5 mM.
The target in data set [17] is His4 (position 4, --TASHHK---). As to the kind of experiment: NMR. Particulars: 25 C; free peptide (no metal), 5 mM.
The mark [18] stands for this setting: Zn(II)-bound peptide (ZnH-1L to ZnH-2L step), peptide:Zn ratios 1:1 and 2:1.

“And” between values parts separate entries of the source, which are not always exact repeats. Identical values can stand only once.

B1: Ac-TEAHHK-NH2, Ser-to-Ala analogue of the histone H2A -TESHHK- peptide (synthetic peptide; sequence derived from mammalian histone H2A (species not stated); … (peptide)
chain: TEAHHK
B1: the pKa in data set [1] was 4.10; in data set [2], 6.00; in [3] it was 6.68; in [4] (setting [18]), 10.34; in [4] (free peptide (no metal)) it was 10.25; in data set [5] it was 6.42 (2) and 6.15 (3). For the same protein, the pKa in data set [6] was 6.48 (2) and 6.72 (2).

B2: Ac-TESHHK-NH2, hexapeptide model of the histone H2A C-terminal tail (-ESHH- motif) (synthetic peptide; sequence from mammalian histone H2A (species not stated)) (peptide)
chain: TESHHK
Turning to B2, the pKa in data set [7] is 6.78; in [8] it was 3.85; in data set [9] (setting [18]) it was 10.30; in data set [9] (free peptide (no metal)) it was 10.28; in data set [10] it was 5.90; in [11] it was 6.41 (2) and 6.88 (5). The pKa in [12] was 6.35 (I) and 6.12 (4).

B3: Ac-TASHHK-NH2, Glu-to-Ala analogue of the histone H2A -TESHHK- peptide (synthetic peptide; sequence derived from mammalian histone H2A (species not stated); … (peptide)
chain: TASHHK
For the protein B3, the pKa in data set [13] is 6.62; in [14], 5.74; in data set [15], 10.48; in data set [16] it was 6.30 (2) and 6.61 (4); in [17], 6.29 (2) and 6.06 (3).

Source of the values: PMC2267071.
